According to patent US20240336907A1, “NOVEL ENDO-ß-N-ACETYLGLUCOSAMINIDASE” (priority 2020, published 2024):

Test system: trastuzumab (mAb1) N297-linked sugar chain
Test: Hydrolysis activity on antibody sugar chain (sugar chain hydrolysis rate, fully automated electrophoresis)
Assay type: biochemical
Conditions: 0.5 hours after initiation of the reaction; 0.1 mg mAb1, 10 ng enzyme, 37° C., pH 7.5
Protocol: The enzyme obtained in Example 2 was measured for hydrolysis activity by the following method. At this time, EndoS was used as a comparative subject.
In sterile water (5 mL), mAb1 (60 mg) was dissolved. The solution was replaced with 50 mM Tris-HCl buffer (pH 7.5) while concentrating the solution by Vivaspin 20 (30,000 MWCO, PES, manufactured by Sartorius).
A reaction solution containing the mAb1 (0.1 mg) and 10 ng of the enzyme (total volume 50 μL) was prepared and incubated at 37° C. Each of the reaction solutions at 0.5, 1, and 2 hours after initiation of the reaction was sampled and analyzed for protein by a fully automated electrophoresis system as mentioned above. In the chromatogram obtained, an unreacted product and a hydrolysate are confirmed as discrete peaks. From the peak-area ratio between the unreacted product and the hydrolysate, the hydrolysis rate of a sugar chain was calculated in accordance with the following expression.

B1: Endo-Si WT: endo-β-N-acetylglucosaminidase derived from Streptococcus iniae, amino acid positions 34 to 928 in SEQ ID NO: 2 (protein, listed as Streptococcus iniae)
chain: REELKMPNGLEQSIADVEAKIDALTYLSKNSKDEFKHSMYEIPSNREHKPVSPKQALQNAKKADAQAERLAKMTIPKKEELKALEGPLYGGYFRTWQDKTSDPTETNKVNSFGELPKEVDLAFVFHDYTKDYSLFWEELATKQVPKLNKQGTRVIRTIPWRFLSGADHSDISADKEKFPNTEAGNKALAKAIVDEYVYKYNLDGLDIDIERDSVPKVNDKEDPEALARTVEVFKEIGKLIGANGADKSRLLIMDTTYTAEENPLIKETAQYLNLLLVQVYGFSGENGNYLHHKNILDETSSMEGRWQGYSKYIRPEQYMVGFSFYEEKDFNNRWKDINEEDPSDPHIGEKIQGTRAERYAKWQPKTGGLKGGLFSYAIDRDGVAQPKQKTEHPELDKIVKSEYKVSKALKKLMMTDDQYQPIDQSDFPDKALRESIIKQVGTRRGDLERFKGTLRLDNPEIKDLTGLNKLKRVAKLELINLPKITKIDKDDLPQNLKPLTDNQKSNLEIKGTYDDSKLYKDIPAFDLVISGLSGLESLDISGHQRDTLSGIDASTLPSLKAINISDNHFDLAQGTENRHILDTILATLAKNGASTASFDKQKPKGLYPESYSTAPLHLQVGQGKINVIDDLIFGTRTNQNTLINTENDFEAYKEQTIQGKPFIAPDYLYDNFKVSYKEYSASIVDSTLAETTDKTIDTAKAETYQVTVSNKDGKTVHSVKVIVGDEKPMMVNLAQDAKIIGTDNMTQSAKVFDGQKDQFLLSWNKDSSVIFELKTPGTAKHWRFFDDGKNDSVTLSVFKGDASNFETEKDKAENWVEITKDSRKNDDKVFSSPLEVDNAKYLKVTIKKEAKYIYFNELQILGYPGVVAKKTADDLRPTEADKSDDKSDKNDTEAK
hydrolysis rate of a sugar chain: 57.4%
